Patent publication US20230391882A1 (NUMAB THERAPEUTICS, published 2023)
Read-outs that look alike come from different tables or passages of the source. Blank lines part the entries; values can stand above or below the binder they belong to.

Experiments:
[1] = biological target: soluble mesothelin (sMSLN) (UniProt Q13421 296-580, limits assumed); assay: cell-based or functional assay
[2] = biological target: T1, mesothelin (MSLN) on target cells (H226, MeT-5A) (UniProt Q13421 37-598, limits assumed); assay: cell-based or functional assay
[3] = biological target: T1, mesothelin (MSLN) on target cells …; assay: cell-based or functional assay; remark: listed apart in the source
[4] = biological target: T1, mesothelin (MSLN) on target cells …; assay: cell-based or functional assay; remark: listed apart in the source
[5] = biological target: T1, mesothelin (MSLN) on target cells …; assay: cell-based or functional assay; remark: listed apart in the source
[6] = biological target: T1, mesothelin (MSLN) on target cells …; assay: cell-based or functional assay; remark: listed apart in the source
[7] = biological target: T1, mesothelin (MSLN) on target cells …; assay: cell-based or functional assay; remark: listed apart in the source
[8] = biological target: T1, mesothelin (MSLN) on target cells …; assay: cell-based or functional assay; remark: listed apart in the source
[9] = biological target: T1, mesothelin (MSLN) on target cells …; assay: cell-based or functional assay; remark: listed apart in the source
[10] = biological target: T1, mesothelin (MSLN) on target cells …; assay: cell-based or functional assay; remark: listed apart in the source
[11] = biological target: recombinant human mesothelin (human MSLN) (human, UniProt Q13421 296-580, limits assumed); assay: KD ratio told in running text; method not given
[12] = biological target: T2, human CD137 on the transgenic NF-kB Jurkat reporter cell line (human, UniProt Q07011 24-255); assay: cell-based or functional assay
[13] = biological target: T3, human PDL1 (human, UniProt Q9NZQ7 19-238, limits assumed); assay: cell-based or functional assay
[14] = biological target: T2, human CD137 on the transgenic NF-kB …; assay: cell-based or functional assay; remark: listed apart in the source
[15] = biological target: T3, human PDL1; assay: cell-based or functional assay; remark: listed apart in the source
[16] = biological target: T2, human CD137 on the transgenic NF-kB …; assay: cell-based or functional assay; remark: listed apart in the source
[17] = biological target: T3, human PDL1; assay: cell-based or functional assay; remark: listed apart in the source

- EC50 (read off the curve); activated CD8+ cells (CD69+) with MeT-5A cells (low MSLN) [4]: ~0.01 nM
- EC50 (read off the curve); activated CD8+ cells (CD69+) with H226 cells, without sMSLN [8]: ~0.02 nM
- EC50 (read off the curve); activated CD8+ cells (CD69+) with H226 cells, with 50 ng/ml sMSLN [9]: ~0.2 nM
- EC50 (read off the curve); activated CD8+ cells (CD69+) with H226 cells, with 500 ng/ml sMSLN [10]: ~1 nM
- fold better binding affinity (KD) than the MSLN-BDs of PRO2000, PRO2562, PRO2566 and PRO2567 [11]: > 5 fold
B1: PRO1872 (MSLN x CD3 x hSA) (54-22-H03-sc01 scFv/28-21-D09-sc04 scDb-i/23-13-A01-sc02 diS scDb-o) (other)
chain: DVVMTQSPSSLSASVGDRVTITCQASQIISSRSAWYQQKPGQPPKLLIYQASKLASGVPSRFSGSGSGTDFTLTISSLQPEDFATYYCQCTYIDSNFGAFGCGTKLTVLGGGGGSEVQLVESGGGLVQPGGSLRLSCAASGFSLSSYDMSWVRQAPGKGLAWIGASYASGPTYYASWAKGRFTISRDNSKNTVYLQMNSLRAEDTATYFCARGGWTGTSHSNIWGQGTLVTVSSGGGGSGGGGSGGGGSGGGGSDIQMTQSPSSLSASVGDRVTITCQSSQSVFSNNYLAWFQQKPGQSPKRLIYSASTLASGVPSRFSGSGSGTDFTLTISSLQPEDFATYYCLGSYACSSADCYVFGTGTKVTVLGGGGGSEVQLVESGGGLVQPGGSLRLSCAASGFSFSSSYWICWVRQAPGKCLEWVGCVFTGDGTTYYASWAKGRFTISRDNSKNTVYLQMNSLRAEDTATYFCARPVSVYYYGMDLWGQGTLVTVSSGGGGSGGGGSDIQMTQSPSSLSASVGDRVTITCQASESIGNYLAWYQQKPGKAPKLLIYSASTLASGVPSRFSGSGSGTDFTLTISSLQPEDFATYYCQSTDYGDSYIFGTGTKVTVLGGGGGSGGGGSGGGGSGGGGSEVQLVESGGGLVQPGGSLRLSCAASGISVSNDYYMCWVRQAPGKGLEWIGCISTYIGNTHYASWAKGRFTISRDNSKNTVYLQMNSLRAEDTAVYYCAKNAGYPGYRYAIDLWGQGTLVTVSS
notes: also called MSLNlowKDxCD3xhSA
- increase of EC50 for killing high MSLN expressing target cells in the presence of 50 ng/ml sMSLN [1]: ~8 fold
- increase of EC50 for killing high MSLN expressing target cells in the presence of 500 ng/ml sMSLN [1]: > 75 fold
- EC50 (read off the curve); specific killing of H226 cells (high MSLN) [2]: ~0.005 nM
- EC50 (read off the curve); specific killing of MeT-5A cells (low MSLN) [3]: ~0.01 nM
- EC50 (read off the curve); specific killing of H226 cells, no sMSLN [5]: ~0.05 nM
- EC50 (read off the curve); specific killing of H226 cells, in presence of 50 ng/ml sMSLN [6]: ~0.6 nM
- EC50 (read off the curve); specific killing of H226 cells, in presence of 500 ng/ml sMSLN [7]: ~5 nM

- EC50 (read off the curve); NF-kB reporter gene assay [12]: ~0.07 nM
- IC50 (read off the curve); NFAT reporter gene assay, blocked ligand PD-1 [13]: ~0.5 nM
B2: PRO1480 (38-27-A11 sc02 scDb-i/37-20-B03 sc09.1 scDb-o/19-01-H04 sc03 scFv) (other)
chain: DIQMTQSPASLSASVGDRVTITCQASQSIGTYLAWYQQKPGKPPKLLIYRAFILASGVPSRFSGSGSGTDFTLTISSLQPEDFATYYCQSNFYSDSTTIGPNAFGTGTKVTVLGGGGGSEVQLVESGGGLVQPGGSLRLSCAASGFSFSANYYPCWVRQAPGKGLEWIGCIYGGSSDITYDANWTKGRFTISRDNSKNTVYLQMNSLRAEDTAVYYCARSAWYSGWGGDLWGQGTLVTVSSGGGGSGGGGSGGGGSGGGGSIQMTQSPSSLSASVGDRVTITCQASQSISNRLAWYQQKPGKAPKLLIYSASTLASGVPSRFSGSGSGTDFTLTISSLQPEDFATYYCQSTYYGNDGNAFGTGTKVTVLGGGGGSEVQLVESGGGLVQPGGSLRLSCAASGFSFNSDYWIYWVRQAPGKGLEWIASIYGGSSGNTQYASWAQGRFTISRDNSKNTVYLQMNSLRAEDTAVYFCARGYVDYGGATDLWGQGTLVTVSSGGGGSGGGGSIQMTQSPSSLSASVGDRVTITCQSSESVYSNNQLSWYQQKPGQPPKLLIYDASDLASGVPSRFSGSGSGTDFTLTISSLQPEDFATYYCAGGFSSSSDTAFGGGTKLTVLGGGGGSGGGGSGGGGSGGGGSEVQLVESGGGLVQPGGSLRLSCAASGFSLSSNAMGWVRQAPGKGLEYIGIISVGGFTYYASWAKGRFTISRDNSKNTVYLQMNSLRAEDTATYFCARDRHGGDSSGAFYLWGQGTLVTVSS

- EC50 (read off the curve); NF-kB reporter gene assay, rising part of the curve [14]: ~0.1 nM
- IC50 (read off the curve); NFAT reporter gene assay, blocked ligand PD-1 [15]: ~1 nM
B3: PRO1124 (38-02-A04 sc06 Full scDb-i/33-03-G02 sc01 scDb-o) (bispecific antibody)
chain: DIQMTQSPSSLSASVGDRVTITCQASQSINDYLAWYQQKPGKAPKLLIYKASTLASGVPSRFSGSGSGTDFTLTISSLQPEDFATYYCQQGYIITDIDNVFGTGTKVTVLGGGGGSQVQLQESGPGLVKPSETLSLTCKASGFSFSNSYWICWVRQPPGKGLEWIGCTFVGSSDSTYYANWAKGRVTISKDSSKNQVSLKLSSVTAADTAVYFCARHPSDAVYGYANNLWGQGTLVTVSSGGGGSGGGGSGGGGSGGGGSLQMTQSPSSLSASVGDRVTITCQASQSINNVLAWYQQKPGKPPKLLIYRASTLASGVPSRFSGSGSGTDFTLTISSLQPEDFATYYCQSSYGNYGDFGTGTKVTVLGGGGGSQVQLQESGPGLVKPSETLSLTCKVSGFSFSSGYDMCWIRQPPGKGLEWIGCVVAGSVDITYYASWAKGRVTISVDSSKNQFSLKLSSVTAADTAVYYCARKDAYSDAFNLWGQGTLVTVSS

- EC50 (read off the curve); NF-kB reporter gene assay, rising part of the curve [16]: ~0.3 nM
- IC50 (read off the curve); NFAT reporter gene assay, blocked ligand PD-1 [17]: ~2 nM
B4: PRO885 (38-02-A04 sc01 scDb-i/33-03-G02 sc01 scDb-o) (bispecific antibody)
chain: DIQMTQSPSSLSASVGDRVTITCQASQSINDYLAWYQQKPGKAPKLLIYKASTLASGVPSRFSGSGSGTDFTLTISSLQPEDFATYYCQQGYIITDIDNVFGTGTKVTVLGGGGGSQVQLQESGPGLVKPSETLSLTCKVSGFSFSNSYWICWIRQPPGKGLEWIGCTFVGSSDSTYYANWAKGRVTISVDSSKNQFSLKLSSVTAADTAVYYCARHPSDAVYGYANNLWGQGTLVTVSSGGGGSGGGGSGGGGSGGGGSIQMTQSPSSLSASVGDRVTITCQASQSINNVLAWYQQKPGKAPKLLIYRASTLASGVPSRFSGSGSGTDFTLTISSLQPEDFATYYCQSSYGNYGDFGTGTKVTVLGGGGGSQVQLQESGPGLVKPSETLSLTCKVSGFSFSSGYDMCWIRQPPGKGLEWIGCVVAGSVDITYYASWAKGRVTISVDSSKNQFSLKLSSVTAADTAVYYCARKDAYSDAFNLWGQGTLVTVSS
